Test results: patent US20220127628A1
Several values for one entry are separate records, joined by “and”; a condition that tells them apart may be missing. Equal values may be shown once.

Biological target: recombinant NetB (wild type NetB) toxin of C. perfringens (Clostridium perfringens)
Test: cell-based or functional assay

B1: VHH ENB-1D11 (VHH)
VHH: EVQLVESGGGLVQTGGSLRLSCTASGTIDMTYGLIWYRQAPGKERELVASIRRDGRTNYADSVKGRFTISIDNAKNSIHLQMNSLKPDDTARYYCNSPYHALWGQGTQVTVSS
  lowest VHH concentration neutralizing NetB haemolysis: 1.25 µM and 0.625 µM

B2: VHH ENB-1A4 (VHH)
VHH: EVQLVESGGGLVQAGGSLRLSCAASGSIFSTNVMGWYRQAPGKQREFVAGITIGGTARYPDSVKGRFTISRDNTQNTVYLQMNNLKPEDTAVYYCNAVLPSDQRRWSWGQGTQVTVSS
  lowest VHH concentration neutralizing NetB haemolysis: 1.25 µM and 0.625 µM
